Results: patent publication US20230074436A1 (DENALI THERAPEUTICS, published 2023)
No end group written: not given here. *: point of attachment. Biotin = O=C1N[C@H]2[C@H](CS[C@H]2CCCCC(=O)*)N1

Columns and labels:
[1] = target: rat alpha-synuclein (rat, UniProt P37377 1-140); assay: direct ELISA on coated antigen;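 further: plates coated with recombinant human, mouse or rat alpha-synuclein, purified antibody titrated 10 µg/mL down to 0.6 ng/mL for 1 h, bound antibody detected by anti-rat HRP with TMB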
Method: (§1) 96-well Nunc plates were coated with 50 μL of recombinant human, mouse, or rat alpha-synuclein at a concentration of 1 μg/mL in PBS at 4° C. overnight. The plates were then washed three times with PBST and blocked with PBS containing 3% BSA at room temperature for 1 hour. Purified antibody was diluted by serial dilution methods, from 10 μg/mL to 0.6 ng/mL, and 50 μL of the antibody solution was added to the alpha-synuclein-coated wells. The plates were incubated for 1 hour at room temperature, then washed three times with PBST. Secondary detection antibody (goat anti-rat HRP (obtained from Southern Biotech)) was added 50 μL/well, 1:5,000 diluted in BSA-PBS solution. Plates were incubated for 1 hour at room temperature, then washed three times with PBST. Plates were subsequently developed with 50 μL/well of TMB substrate (Thermo Fisher) and quenched with 50 μL/well of 1 N sulfuric acid. The signal was quantified on a BioTek® plate reader at A450.

[2] = target: human alpha-synuclein monomer (human, UniProt P37840 1-140); assay: direct ELISA on coated antigen;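 further: plates coated with recombinant human, mouse or rat alpha-synuclein, purified antibody titrated 10 µg/mL down to 0.6 ng/mL for 1 h, bound antibody detected by anti-rat HRP with TMB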
Method: as §1

[3] = target: T1, asyn_113-127_124P (human); assay: Ala-scan peptide ELISA, row H, run 1
T1 construct: substitution is already in the entry; also called pep14
T1 peptide: Biotin-LEDMPVDPDNEPYEM
Method: (§2) 96-well Nunc plates were coated with 50 μL per well of 1 μg/mL streptavidin (from Jackson Immuno Research Laboratory) in PBS at 4° C. overnight. The plates were washed three times with PBST, and blocked with PBS containing 3% BSA at room temperature for 1 hour. The N-terminal biotinylated peptides were dissolved in Milli Q water to a concentration of 2 mg/mL, then further diluted to a concentration of 2 μg/mL with PBS. 50 μl of the diluted peptide was applied to the streptavidin-coated plates and incubated at 4° C. overnight. 2 μg/mL of biotinylated human alpha-synuclein was used as the positive control. The plates were washed three times with PBST before use. Purified antibody was diluted by serial dilution methods, from 20 μg/mL to 1 ng/mL, and 50 μL of the antibody solution was added to the peptide-coated wells. The plates were incubated for 1 hour at room temperature, then washed three times with PBST. Secondary detection antibody (goat anti-rat HRP (obtained from Southern Biotech)) was added with 1:5,000 dilutions and incubated for 1 hour at room temperature, then washed three times with PBST. Plates were developed with 50 μL/well of TMB substrate (Thermo Fisher) and quenched with 50 μL/well of 1 N sulfuric acid. The signal was quantified on a BioTek® plate reader at A450. A parallel repeat was performed for each peptide in a separate plate.

[4] = target: T2, asyn_113-127_116A (human); assay: Ala-scan peptide ELISA, row H, run 1
T2 construct: substitution is already in the entry; also called pep5
T2 peptide: Biotin-LEDAPVDPDNEAYEM
Method: as §2

[5] = target: T3, asyn_113-127_124G (human); assay: Ala-scan peptide ELISA, row H, run 1
T3 construct: substitution is already in the entry; also called pep13
T3 peptide: Biotin-LEDMPVDPDNEGYEM
Method: as §2

[6] = target: T4, asyn_113-127_115A (human); assay: Ala-scan peptide ELISA, row B, run 2
T4 construct: substitution is already in the entry; also called pep4
T4 peptide: Biotin-LEAMPVDPDNEAYEM
Method: as §2

[7] = target: T5, asyn_113-127_126A (human); assay: Ala-scan peptide ELISA, row B, run 2
T5 construct: substitution is already in the entry; also called pep16
T5 peptide: Biotin-LEDMPVDPDNEAYAM
Method: as §2

[8] = target: T1, asyn_113-127_124P; assay: Ala-scan peptide ELISA, row B, run 2
Method: as §2

[9] = target: T6, asyn_113-127_114A (human); assay: Ala-scan peptide ELISA, row B, run 2
T6 construct: substitution is already in the entry; also called pep3
T6 peptide: Biotin-LADMPVDPDNEAYEM
Method: as §2

[10] = target: T7, biotinylated human alpha-synuclein (human, UniProt P37840 1-140); assay: Ala-scan peptide ELISA, row B, run 2
Method: as §2

[11] = target: T8, asyn_113-127_113A (human); assay: Ala-scan peptide ELISA, row B, run 2
T8 construct: substitution is already in the entry; also called pep2
T8 peptide: Biotin-AEDMPVDPDNEAYEM
Method: as §2

[12] = target: T9, asyn_113-127_122A (human); assay: Ala-scan peptide ELISA, row B, run 2
T9 construct: substitution is already in the entry; also called pep11
T9 peptide: Biotin-LEDMPVDPDAEAYEM
Method: as §2

[13] = target: T3, asyn_113-127_124G; assay: Ala-scan peptide ELISA, row B, run 2
Method: as §2

[14] = target: T10, asyn_113-127_117A (human); assay: Ala-scan peptide ELISA, row B, run 2
T10 construct: substitution is already in the entry; also called pep6
T10 peptide: Biotin-LEDMAVDPDNEAYEM
Method: as §2

[15] = target: T11, asyn_113-127_118A (human); assay: Ala-scan peptide ELISA, row B, run 2
T11 construct: substitution is already in the entry; also called pep7
T11 peptide: Biotin-LEDMPADPDNEAYEM
Method: as §2

[16] = target: T12, asyn_113-127 (human); assay: Ala-scan peptide ELISA, row B, run 2
T12 construct: also called pep1
T12 peptide: Biotin-LEDMPVDPDNEAYEM
Method: as §2

[17] = target: T13, asyn_113-127_125A (human); assay: Ala-scan peptide ELISA, row B, run 2
T13 construct: substitution is already in the entry; also called pep15
T13 peptide: Biotin-LEDMPVDPDNEAAEM
Method: as §2

[18] = target: T4, asyn_113-127_115A; assay: Ala-scan peptide ELISA, row A, run 2; further: test concentration or dose not given here
[19] = target: T14, asyn_113-127_120A (human); assay: Ala-scan peptide ELISA, row A, run 2; further: test concentration or dose not given here
T14 construct: substitution is already in the entry; also called pep9
T14 peptide: Biotin-LEDMPVDADNEAYEM

[20] = target: T5, asyn_113-127_126A; assay: Ala-scan peptide ELISA, row A, run 2; further: test concentration or dose not given here
[21] = target: T15, asyn_113-127_127A (human); assay: Ala-scan peptide ELISA, row A, run 2; further: test concentration or dose not given here
T15 construct: substitution is already in the entry; also called pep17
T15 peptide: Biotin-LEDMPVDPDNEAYEA

[22] = target: T1, asyn_113-127_124P; assay: Ala-scan peptide ELISA, row A, run 2; further: test concentration or dose not given here
[23] = target: T6, asyn_113-127_114A; assay: Ala-scan peptide ELISA, row A, run 2; further: test concentration or dose not given here
[24] = target: T2, asyn_113-127_116A; assay: Ala-scan peptide ELISA, row A, run 2
Method: as §2

[25] = target: T7, biotinylated human alpha-synuclein; assay: Ala-scan peptide ELISA, row A, run 2
Method: as §2

[26] = target: T8, asyn_113-127_113A; assay: Ala-scan peptide ELISA, row A, run 2
Method: as §2

[27] = target: T16, asyn_113-127_119A (human); assay: Ala-scan peptide ELISA, row A, run 2
T16 construct: substitution is already in the entry; also called pep8
T16 peptide: Biotin-LEDMPVAPDNEAYEM
Method: as §2

[28] = target: T9, asyn_113-127_122A; assay: Ala-scan peptide ELISA, row A, run 2
Method: as §2

[29] = target: T3, asyn_113-127_124G; assay: Ala-scan peptide ELISA, row A, run 2
Method: as §2

[30] = target: T17, asyn_113-127_121A (human); assay: Ala-scan peptide ELISA, row A, run 2
T17 construct: substitution is already in the entry; also called pep10
T17 peptide: Biotin-LEDMPVDPANEAYEM
Method: as §2

[31] = target: T10, asyn_113-127_117A; assay: Ala-scan peptide ELISA, row A, run 2
Method: as §2

[32] = target: T11, asyn_113-127_118A; assay: Ala-scan peptide ELISA, row A, run 2
Method: as §2

[33] = target: T12, asyn_113-127; assay: Ala-scan peptide ELISA, row A, run 2
Method: as §2

[34] = target: T13, asyn_113-127_125A; assay: Ala-scan peptide ELISA, row A, run 2
Method: as §2

[35] = target: T18, asyn_113-127_123A (human); assay: Ala-scan peptide ELISA, row A, run 2
T18 construct: substitution is already in the entry; also called pep12
T18 peptide: Biotin-LEDMPVDPDNAAYEM
Method: as §2

B1: 20H4 (antibody, rat IgG2b, V domains shown)
VH: AVQLVESGGGLVQPKESLKISCAASGFTFSNAAMYWVRQAPGKGLELLARIRTKPNNYATYHADSVKGRFTISRDDSQSMVYLHMGNLKTEDTAMYYCTADMATGDYWGPGVMVTVSS
VL: DIQMTQSPPVLSVSVGDRVTLSCKASQNINKNLDWYQQKHGEAPKPLIYSTNNLQTGVPSRFSGSGSGTDYTLTISSLQPEDVATYYCYQYKSAWTFGGGTKLELR
notes: also called clone 20H4; rat 20H4
B1 was tested, and the “Bmax (O.D. at 450 nm)” value [1] was 0.2 OD, the EC50 [1] was 1.5 nM and the “Bmax (O.D. at 450 nm)” value [2] was 0.83 OD. The EC50 [2] was 0.18 nM, the A450 [3] was 0.049 OD and the A450 [4] was 0.071 OD. It also gave an A450 [5] of 0.065 OD, an A450 [6] of 0.387 OD and an A450 [7] of 0.392 OD. For the same binder, the A450 [8] was 0.058 OD, the A450 [9] was 0.387 OD and the A450 [10] was 0.931 OD. The A450 [11] was 0.407 OD, the A450 [12] was 0.06 OD and the A450 [13] was 0.326 OD. It also gave an A450 [14] of 0.459 OD, an A450 [15] of 0.382 OD and an A450 [16] of 0.394 OD. It also gave an A450 [17] of 0.057 OD, an A450 [18] of 0.405 OD and an A450 [19] of 0.314 OD. For the same binder, the A450 [20] was 0.469 OD, the A450 [21] was 0.504 OD and the A450 [22] was 0.069 OD. The A450 [23] was 0.401 OD, the A450 [24] was 0.418 OD and the A450 [25] was 0.907 OD. It also gave an A450 [26] of 0.44 OD, an A450 [27] of 0.06 OD and an A450 [28] of 0.08 OD. For the same binder, the A450 [29] was 0.396 OD, the A450 [30] was 0.391 OD and the A450 [31] was 0.462 OD. The A450 [32] was 0.441 OD, the A450 [33] was 0.374 OD and the A450 [34] was 0.078 OD. For the same binder, the A450 [35] was 0.441 OD.
